Article PMC7486931

What was measured:
[1] = target: T1, VtlR (rVtlR) (Agrobacterium tumefaciens C58) (UniProt A9CI74); test: EMSA
T1 sequence: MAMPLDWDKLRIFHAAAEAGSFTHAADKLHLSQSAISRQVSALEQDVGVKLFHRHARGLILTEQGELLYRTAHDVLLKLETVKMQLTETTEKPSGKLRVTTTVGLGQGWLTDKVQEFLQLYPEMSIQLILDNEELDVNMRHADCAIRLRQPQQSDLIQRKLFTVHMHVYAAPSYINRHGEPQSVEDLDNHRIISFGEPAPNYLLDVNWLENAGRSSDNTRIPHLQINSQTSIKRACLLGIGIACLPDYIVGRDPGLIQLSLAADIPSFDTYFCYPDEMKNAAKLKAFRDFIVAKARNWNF

[2] = target: T1, VtlR (rVtlR) (Agrobacterium tumefaciens C58); test: competition

Row | Sequence | binding [1] | binding [2]
1 | GAACTGGGAGGAAAAGCCACCGTGTGCATCAACTGAGAGCTATTTGGTGTTTTTTTGTGCACGAAACAACTCTTTTTTGTGCAGGTCAGGCATGCGTCGCACGCAGCCCTCGATATTTCCGGTATATTTTATGTGCAAAGCTGAAGAAGGGCGCCTGCGCGCCCCTCTTGCTTCTACCTTTACAAGGCTTTGAATTTTAAAGATTATCTTTCGACGTCGATTATTTTTACGTCAGAAGTTCCAGTTCCGC (double strand) [PabcR1] | binds | –
2 | GCCGTGGGCAAGCGTGACAGCTAACTAAAATATGGGAGTGGCAAGAATGCAAAACAAGGTTGCATCATGCGATATTTCGCCAATTTGGAGAAAATTCTTGCGGGTAAAAAAAGAGGGCCGCCG (double strand) [PabcR2] | – | no binding
